In patent publication US20220363757A1:

Key:
Experiment in all cases: SPR, Fab over captured mutant LAG-3-Fc
[1] = biological target: human LAG-3 domain 1-2 Fc fusion, chimeric construct #19 (mutated region AA 118-127) (human) (UniProt P18627)
[2] = biological target: human LAG-3 domain 1-2 Fc fusion, point mutation #65 R125A (human) (UniProt P18627)
[3] = biological target: human LAG-3 domain 1-2 Fc fusion, point mutation #71 D131A (human) (UniProt P18627)
[4] = biological target: human LAG-3 domain 1-2 Fc fusion, point mutation #67 R127A (human) (UniProt P18627)
Sequence of human LAG-3 domain 1-2 Fc fusion, point mutation #67 R127A (human) (P18627 23-266 R127A): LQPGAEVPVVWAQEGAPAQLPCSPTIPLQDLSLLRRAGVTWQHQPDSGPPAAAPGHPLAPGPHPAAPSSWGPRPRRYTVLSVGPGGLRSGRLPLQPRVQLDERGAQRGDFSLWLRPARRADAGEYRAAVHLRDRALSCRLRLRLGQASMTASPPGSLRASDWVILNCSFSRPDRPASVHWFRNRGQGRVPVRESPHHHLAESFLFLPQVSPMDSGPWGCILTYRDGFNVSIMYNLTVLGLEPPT

Sequence of human LAG-3 domain 1-2 Fc fusion, point mutation #71 D131A (human) (P18627 23-266 D131A): as the sequence (P18627 23-266 R127A) above, with A105R, D109A counted along it
Sequence of human LAG-3 domain 1-2 Fc fusion, point mutation #65 R125A (human) (P18627 23-266 R125A): as the sequence (P18627 23-266 R127A) above, with R103A, A105R counted along it
Sequence of human LAG-3 domain 1-2 Fc fusion, chimeric construct #19 (mutated region AA 118-127) (human) (P18627 other isoform, or with tags, fused parts or gaps mutant): as the sequence (P18627 23-266 R127A) above, with P96S, R97H, D101E, E102K, A105P counted along it

KD mutant/KD wild type [1]: 0.8 fold
KD mutant/KD wild type [2]: 0.9 fold
KD mutant/KD wild type [3]: 1.2 fold
KD mutant/KD wild type [4]: 0.7 fold
Substance: Fab fragment of 25F7-Lag3.5 analogue
